One assay concerns the target T1, Kv1.3 (Homo sapiens, UniProt P22001).
T1 construct: endogenous in cells; host or cells: T cells in 50% human whole blood from multiple donors
In words: Human whole blood assay: thapsigargin-induced IL-2 and IFN-γ secretion. Format: cell-based. The conditions noted are these: for IC50: human whole blood; for Potency Relative to ShK (WB, IL2): ratio of WB IL-2 IC50 to that of ShK(1-35). Here is the method: An ex vivo assay was employed to examine impact of toxin peptide analog Kv1.3 inhibitors on secretion of IL-2 and IFN-γ. […] In brief, 50% human whole blood was stimulated with thapsigargin to induce store depletion, calcium mobilization and cytokine secretion. […] After 48 hours at 37° C. and 5% CO2, conditioned medium was collected and the level of cytokine secretion was determined using a 4-spot electrochemiluminescent immunoassay from MesoScale Discovery. […] Kv1.3 is the major voltage-gated potassium channel present on T cells. Allowing for K^+ efflux, Kv1.3 provides the driving force for continued Ca^2+ influx which is necessary for the sustained elevation in intracellular calcium needed for efficient T cell activation and cytokine secretion. […] Therefore, we employed a bioassay whereby the bioactivity of Kv1.3 inhibitors is assessed by examining their ability to block thapsigargin-induced cytokine secretion from T cells in human whole blood.

The target of another assay is T2, huIL-17R (Homo sapiens, UniProt Q96F46).
T2 construct: FLAG (the F of FpH); polyHis (the pH of FpH)
T2 sequence (Q96F46 with tags, fused parts or gaps): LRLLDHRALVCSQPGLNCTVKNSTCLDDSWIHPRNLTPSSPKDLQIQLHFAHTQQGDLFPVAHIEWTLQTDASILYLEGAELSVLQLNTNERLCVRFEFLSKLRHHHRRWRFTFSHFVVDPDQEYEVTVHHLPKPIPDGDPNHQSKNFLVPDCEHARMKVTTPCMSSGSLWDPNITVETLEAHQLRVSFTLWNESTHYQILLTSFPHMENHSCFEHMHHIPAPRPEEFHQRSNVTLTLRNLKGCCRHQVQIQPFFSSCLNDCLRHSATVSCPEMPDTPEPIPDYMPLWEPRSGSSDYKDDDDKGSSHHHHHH
Nature of the assay: BIAcore solution equilibrium binding assay to huIL-17R (16429 immobilized). The conditions noted are these: for IL-17R binding capability: 10 nM, 100 nM and 1000 nM antibody incubated with 10 nM IL-17R (FIG. 2A); for IL-17R binding activity: 30 μM antibody with 30 nM IL-17R (FIG. 2B). Here is the method: Antibody 16429 was immobilized to a CM5 sensor chip, and 10 nM of IL-17R in the absence of antibody was used to establish the 100% binding signal of […] that is free of antibody binding in solution. In FIG. 2A, 10 nM, 100 nM and 1000 nM of indicated antibody samples were incubated with the 10 nM IL-17R to determine antibody binding in solution. In FIG. 2B, 30,000 nM of the antibody samples were incubated with 30 nM IL-17R to determine antibody binding in solution. In FIGS. 2A-B, The decreased binding signal of IL-17R after the antibody incubation indicates the binding of the antibody to IL-17R in solution.
A reference antigen binding protein (e.g., Antibody 16429 for human IL-17R or Antibody 16449 for human TR2) is immobilized to a BIACore® 2000, research grade sensor chip CM5 surface according to manufacturer's instructions (BIACore, Inc., Piscataway, N.J.). Carboxyl groups on the sensor chip surfaces are activated by injecting 60 μL of a mixture containing 0.2 M N-ethyl-N′-(dimethylaminopropyl) carbodiimide (EDC) and 0.05 M N-hydroxysuccinimide (NHS). The reference antigen binding protein is diluted in 10 mM sodium acetate, pH 4.0 and injected over the activated chip surface at 30 μL/min for 6 minutes. Excess reactive groups on the surfaces are deactivated by injecting 60 μL of 1 M ethanolamine. The final immobilized level is typically approximately 6600 resonance units (RU). Soluble target antigen (e.g., 10 nM of soluble human IL-17R or 30 nM of soluble human TR2) in the absence of soluble antigen binding protein (e.g., antibody) is used to establish the 100% binding signal to the fixed reference antigen binding protein (e.g., the positive control antibody). The decreased binding signal of the target antigen after incubation of the test immunoglobulin indicates its level of binding to the target antigen in solution.
The lead candidates were then selected based on lack of binding to the IL-17R extracellular domain as determined by BIAcore analysis. Antibody 16429 is a human antibody that specifically binds to huIL-17R. A solution equilibrium binding assay was developed to assess the binding activity of a set of antibodies to huIL-17R. Antibody 16429 was immobilized to a BIACore® 2000, research grade sensor chip CM5 surface according to manufacturer's instructions (BIACore, Inc., Piscataway, N.J.). Briefly, carboxyl groups on the sensor chip surfaces were activated by injecting 60 μL of a mixture containing 0.2 M N-ethyl-N′-(dimethylaminopropyl) carbodiimide (EDC) and 0.05 M N-hydroxysuccinimide (NHS). Antibody 16429 was diluted in 10 mM sodium acetate, pH 4.0 and injected over the activated chip surface at 30 μL/min for 6 minutes. Excess reactive groups on the surfaces were deactivated by injecting 60 μL of 1 M ethanolamine. The final immobilized level was approximately 6600 resonance units (RU). As represented in FIG. 2A, 10 nM of IL-17R in the absence of soluble antibody was used to establish the 100% binding signal of IL-17R to the fixed 16429 antibody. To determine antibody binding in solution, 10 nM, 100 nM and 1000 nM of the antibody samples were incubated with the 10 nM IL-17R. The decreased binding signal of IL-17R after the antibody incubation indicates the binding of the antibody to IL-17R in solution.

In the next assay the target is T3, IL-17R (Homo sapiens, UniProt Q96F46).
T3 construct: endogenous in cells; host or cells: human foreskin fibroblasts (HFF)
T3 sequence (Q96F46 33-866): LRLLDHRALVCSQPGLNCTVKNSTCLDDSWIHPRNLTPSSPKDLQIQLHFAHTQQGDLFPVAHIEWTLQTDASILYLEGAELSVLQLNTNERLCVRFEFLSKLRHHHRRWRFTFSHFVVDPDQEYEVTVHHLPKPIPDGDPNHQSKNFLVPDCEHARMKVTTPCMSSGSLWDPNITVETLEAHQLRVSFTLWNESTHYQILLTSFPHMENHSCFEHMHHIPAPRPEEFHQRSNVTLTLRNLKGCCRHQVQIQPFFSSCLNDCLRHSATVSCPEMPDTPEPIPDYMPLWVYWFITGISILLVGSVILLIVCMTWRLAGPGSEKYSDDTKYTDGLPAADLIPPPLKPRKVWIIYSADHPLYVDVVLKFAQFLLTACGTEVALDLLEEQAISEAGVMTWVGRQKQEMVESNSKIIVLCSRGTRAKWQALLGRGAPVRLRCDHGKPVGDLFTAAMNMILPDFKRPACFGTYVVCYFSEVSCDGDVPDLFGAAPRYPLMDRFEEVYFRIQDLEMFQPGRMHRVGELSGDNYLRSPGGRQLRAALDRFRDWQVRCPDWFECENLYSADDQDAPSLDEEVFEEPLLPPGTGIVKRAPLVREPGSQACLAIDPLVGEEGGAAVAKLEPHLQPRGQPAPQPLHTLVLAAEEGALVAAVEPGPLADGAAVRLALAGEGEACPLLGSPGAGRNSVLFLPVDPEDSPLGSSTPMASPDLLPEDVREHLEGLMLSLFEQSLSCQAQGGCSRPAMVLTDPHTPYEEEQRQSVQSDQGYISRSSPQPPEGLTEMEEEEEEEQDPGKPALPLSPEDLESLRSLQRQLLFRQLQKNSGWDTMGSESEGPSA
In words: Cell based activity assay: IL-17-induced GRO-α release from human foreskin fibroblasts (sandwich ELISA). The conditions noted are these: HFF, 5 ng/ml IL-17; 0.1, 1 and 10 μM antibody (FIG. 3). Here is the method: The conditioned cell medium was then assessed for GRO-α levels using a GRO-α sandwich ELISA.
Interaction of IL-17 with the IL-17R on cells induces the production of various factors, including growth-related oncogene alpha (GRO-α), from these cells. A cell-based characterization assay was developed to measure GRO-α released using sandwich ELISA. In this ELISA, a GRO-α capture antibody is utilized to bind GRO-α, and then a biotinylated GRO-α detection antibody is used to detect the captured protein. Streptavidin conjugated to horseradish peroxidise (HRP) is then added to detect the amount of biotinylated GRO-α detection antibody bound. The amount of HRP bound is measured by evaluation of absorbance at 450 nm. An increase in absorbance at 450 nm is indicative of an increase in the amount of GRO-α produced. In this assay, human foreskin fibroblasts (HFF) are incubated with 5 ng/ml IL-17 and 0.1 μM, 1 μM and 10 μM of antibody samples. The conditioned cell medium is then harvested and processed for assessment of GRO-α levels using a GRO-α sandwich ELISA.
(ELISA stands for enzyme-linked immunosorbent assay.)

Like-named read-outs stand apart in the source and are kept apart here. Where no end group is shown, it is not given here.

As a reminder, the IC50 is the midpoint of a concentration-inhibition curve.

T1 sequence (P22001 whole entry): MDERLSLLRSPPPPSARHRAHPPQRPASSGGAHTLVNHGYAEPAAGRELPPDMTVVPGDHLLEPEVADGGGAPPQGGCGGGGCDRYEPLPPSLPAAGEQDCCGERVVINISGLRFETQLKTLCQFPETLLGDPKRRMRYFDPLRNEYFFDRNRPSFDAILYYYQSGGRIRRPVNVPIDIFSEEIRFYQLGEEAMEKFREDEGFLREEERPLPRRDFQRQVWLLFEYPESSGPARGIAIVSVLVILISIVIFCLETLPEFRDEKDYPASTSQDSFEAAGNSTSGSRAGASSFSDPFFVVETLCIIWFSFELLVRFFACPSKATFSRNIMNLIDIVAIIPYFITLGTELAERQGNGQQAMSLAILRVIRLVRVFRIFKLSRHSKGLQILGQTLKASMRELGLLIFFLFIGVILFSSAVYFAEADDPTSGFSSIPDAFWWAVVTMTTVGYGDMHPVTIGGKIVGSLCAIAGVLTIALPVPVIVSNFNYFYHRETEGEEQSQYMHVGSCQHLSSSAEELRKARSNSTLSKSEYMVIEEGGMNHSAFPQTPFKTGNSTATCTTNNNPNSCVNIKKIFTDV

With “Bivalent Fc-L10-ShK[2-35] homodimer: IgG1 Fc peptibody, Example 2 of WO2008/088422 A2 (GGGGSGGGGSSCIDTIPKSRCTAFQCKHSMKYRLSFCRKTCGTC; ends and bridges not checked; also: Fc fusion homodimer, Fc domain not in chain)”, the IC50 with Kv1.3 (IFNg, read-out: WB (IFNg) IC50) stood at 2280 pM; with Kv1.3 (IL-2, read-out: WB (IL-2) IC50) it was 585 pM. In the assay with Kv1.3, the “Potency Relative to ShK (WB, IL2)” value was 8.73.
In the same order, the values of “Bivalent Fc-L10-ShK[1-35] homodimer: IgG1 Fc peptibody, Example 1 of WO2008/088422 A2 (GGGGSGGGGSRSCIDTIPKSRCTAFQCKHSMKYRLSFCRKTCGTC; ends and bridges not checked; also: Fc fusion homodimer, Fc domain not in chain)” are 320 pM, 386 pM and 5.76.
Turning to “20 kDa-PEG-ShK: N-terminally 20 kDa PEGylated ShK, SEQ ID NO:380”, the IC50 with Kv1.3 (IFNg, read-out: WB (IFNg) IC50) was 840 pM; with Kv1.3 (IL-2, read-out: WB (IL-2) IC50), 380 pM.

B1: 16438 (antibody, V domains shown)
VH: QVQLVQSGAEVKKPGASVKVSCKASGYTFTRYGISWVRQAPGQGLEWMGWISTYSGNTNYAQKLQGRVTMTTDTSTSTAYMELRSLRSDDTAVYYCARRQQYFDYWGQGTLVTVSS
VL: EIVMTQSPATLSVSPGERATLSCRASQSVSSNLAWFQQKPGQAPRLLIYDASTRATGVPARFSGSGSGTEFTLTISSLQSEDFAVYYCQQYDNWPLTFGGGTKVEIK
B1: in the assay with huIL-17R, the IL-17R binding capability result is reported as “substantial reduction in IL-17R binding capability” and the IL-17R binding activity result is given as “no significant IL-17R binding activity”. Further, the “blocking activity on IL-17-induced GRO-α production” value (“blocking activity” below) with IL-17R is “no significant blocking activity”.

B2: 16439 (antibody, V domains shown)
VH: QVQLVQSGAEVKKPGASVKVSCKASGYTFTRYGISWVRQAPGQGLEWMGWISTYSGNTNYAQKLQGRVTMTTDTSTSTAYMELRSLRSDDTAVYYCARRQQYFDYWGQGTLVTVSS
VL: EIVMTQSPATLSVSPGERATLSCRASQSVSSNLAWFQQKPGQAPRLLIYDASTRATGVPARFSGSGSGTEFTLTISSLQSEDFAVYYCQQYDNAPLTFGGGTKVEIK
B2: in the assay with huIL-17R, the IL-17R binding capability entry was “substantial reduction in IL-17R binding capability” and the IL-17R binding activity entry is “no significant IL-17R binding activity”. In the assay with IL-17R, the “blocking activity” value was “no significant blocking activity”.

B3: 16440 (antibody, V domains shown)
VH: QVQLVQSGAEVKKPGASVKVSCKASGYTFTRYGISWVRQAPGQGLEWMGWISTYSGNTNYAQKLQGRVTMTTDTSTSTAYMELRSLRSDDTAVYYCARAQQYFDYWGQGTLVTVSS
VL: EIVMTQSPATLSVSPGERATLSCRASQSVSSNLAWFQQKPGQAPRPLIYDASTRATGVPARFSGSGSGTDFTLTISSLQSEDFAVYYCQQYDNWPLTFGGGTKVEIK
Consider B3, for which, in the assay with huIL-17R, the IL-17R binding capability entry was “substantial reduction in IL-17R binding capability” and the IL-17R binding activity result is “no significant IL-17R binding activity”. In the assay with IL-17R, the “blocking activity” value is listed as “no significant blocking activity”.

B4: 16441 (antibody, V domains shown)
VH: QVQLVQSGAEVKKPGASVKVSCKASGYTFTRYGISWVRQAPGQGLEWMGWISTYSGNTNYAQKLQGRVTMTTDTSTSTAYMELRSLRSDDTAVYYCARAQQYFDYWGQGTLVTVSS
VL: EIVMTQSPATLSVSPGERATLSCRASQSVSSNLAWFQQKPGQAPRLLIYDASTRATGVPARFSGSGSGTEFTLTISSLQSEDFAVYYCQQYDNWPLTFGGGTKVEIK
As to B4, in the assay with huIL-17R, the IL-17R binding capability entry is reported as “substantial reduction in IL-17R binding capability” and the IL-17R binding activity result is recorded as “no significant IL-17R binding activity”. Further, the “blocking activity” value with IL-17R is recorded as “no significant blocking activity”.
